Residue numbers refer to the chain shown, from its start.

Assay [1] concerns the target T1, recombinant human RSPO3 (human, UniProt Q9BXY4 22-272).
T1 construct: also called rhRSPO3; hRSPO3
T1 sequence: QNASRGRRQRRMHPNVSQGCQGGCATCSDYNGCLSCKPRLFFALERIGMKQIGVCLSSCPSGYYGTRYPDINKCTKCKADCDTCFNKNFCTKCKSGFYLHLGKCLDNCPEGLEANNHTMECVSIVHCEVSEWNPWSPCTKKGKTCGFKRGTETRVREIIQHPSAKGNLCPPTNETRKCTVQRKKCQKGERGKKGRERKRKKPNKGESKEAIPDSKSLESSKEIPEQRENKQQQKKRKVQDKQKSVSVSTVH
Put plainly: SPR (Biacore) with the Fab; table row RSPO3, Affinity (nM) Fab. How it is done:
(§1) For kinetic measurements, two-fold serial dilutions of anti-RSPO Fabs were injected in HBS-P buffer (0.01M HEPES pH 7.4, 0.15M NaCl, 0.005% surfactant P20) at 25° C. with a flow rate of 30 μl/min. Association rates (kₒₙ) and dissociation rates (koff) were calculated using a simple one-to-one Langmuir binding model (BIAcore Evaluation Software version 3.2). The equilibrium dissociation constant (KD) was calculated as the ratio koff/kₒₙ.
(§2) Surface plasmon resonance was used to confirm binding specificities and affinities to human, mouse, and cynomolgus RSPOs. Fab fragments from antibody clones were digested, purified, and then assayed using a BIAcore™-2000 instrument for binding to recombinant proteins. Antibodies fell into three groups: those specific to RSPO2, those specific to RSPO3, and those with some degree of cross-reactivity (FIG. 5).

Assay [2] addresses T2, cynomolgus RSPO3 (cynomolgus, UniProt A0A2K5UTQ7 22-273).
T2 construct: also called cynoRSPO3; rcynoRSPO3
T2 sequence: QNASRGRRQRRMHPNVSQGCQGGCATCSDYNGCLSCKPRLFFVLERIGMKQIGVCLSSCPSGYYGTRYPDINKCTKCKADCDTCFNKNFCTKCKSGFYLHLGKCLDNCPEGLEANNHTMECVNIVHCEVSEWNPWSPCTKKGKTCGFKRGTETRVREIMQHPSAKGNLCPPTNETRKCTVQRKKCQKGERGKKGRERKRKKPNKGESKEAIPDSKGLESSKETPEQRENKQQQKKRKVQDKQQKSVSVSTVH
Described as above. The procedure:
as §1, §2

Assay [3] addresses T3, mouse RSPO3 (mouse, UniProt Q2TJ95 22-277, limits assumed).
T3 construct: also called mRSPO3; murine RSPO3
T3 sequence (looked up): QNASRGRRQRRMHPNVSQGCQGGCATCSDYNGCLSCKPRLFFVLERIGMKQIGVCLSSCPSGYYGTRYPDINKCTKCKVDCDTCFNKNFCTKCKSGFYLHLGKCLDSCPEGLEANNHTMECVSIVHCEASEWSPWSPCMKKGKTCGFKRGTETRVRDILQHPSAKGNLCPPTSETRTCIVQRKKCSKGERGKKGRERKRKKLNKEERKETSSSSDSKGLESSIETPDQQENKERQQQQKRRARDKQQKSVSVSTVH
The description is as above. The procedure: as §1, §2

Assay [4] concerns the target T4, mouse RSPO2 (mouse, UniProt Q8BFU0 22-205, limits assumed).
T4 construct: also called mRSPO2
Put plainly: SPR (Biacore) with the Fab; table row RSPO2, Affinity (nM) Fab. How it is done:
as §1, §2

Assay [5] addresses T5, human RSPO3 with C-terminal HA tag, stably expressed in 293 cells (human, UniProt Q9BXY4 22-272).
T5 construct: Whole open reading frame expressed in HEK-293 cells (high, medium, low); FFPE pellets; also called hRSPO3; RSPO3 Hi
T5 sequence: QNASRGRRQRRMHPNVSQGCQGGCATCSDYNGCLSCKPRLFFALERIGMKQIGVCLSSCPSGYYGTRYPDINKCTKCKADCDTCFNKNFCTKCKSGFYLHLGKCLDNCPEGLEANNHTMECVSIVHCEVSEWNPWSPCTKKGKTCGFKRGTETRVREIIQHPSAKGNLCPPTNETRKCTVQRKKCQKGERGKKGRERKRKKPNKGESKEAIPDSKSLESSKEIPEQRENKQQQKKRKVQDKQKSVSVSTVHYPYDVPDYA
Put plainly: IHC, FFPE 293 cell pellet, RSPO3 Hi.

In assay [6] the target is T5, human RSPO3 with C-terminal HA tag, …. Put plainly: IHC, FFPE 293 cell pellet, RSPO3 Low.
The target in assay [7] is T6, human RSPO1 with C-terminal HA tag, stably expressed in 293 cells (human, UniProt Q2MKA7 21-263).
T6 construct: also called hRSPO1; RSPO1 Hi
Description: IHC, FFPE 293 cell pellet, RSPO1 Hi; - = not significant staining.

Assay [8] concerns the target T7, FLAG-tagged human RSPO3 (Genentech) (human, UniProt Q9BXY4 22-272).
T7 construct: also called hRSPO3; RSPO3 coated plates; not shown: FLAG tag
T7 sequence: T1 sequence
Put plainly: competitive binding ELISA: antibody titrated against LGR4-Fc (LGR4-ECD) binding to plate-coated hRSPO3; signal = bound LGR4-Fc, OD(450/630)/OD no antibody. How it is done:
To measure the activity of anti-RSPO antibodies in blocking the binding of LGR4 and -5 ECDs to RSPOs, MaxiSorp 384-well microwell plates (Thermo Scientific Nunc, Roskilde, Denmark) were coated with 25 ul/well of 0.5 μg/ml hRSPO2 or hRSPO3 (Genentech) in 50 mM carbonate buffer, pH 9.6, overnight at 4° C. Plates were blocked with at 80 ul/well of 0.5% bovine serum albumin, 15 parts per million Proclin 300 in phosphate buffered saline (PBS), pH 7.4, for 1 hour. Serially diluted anti-RSPO antibodies ([…] in […] serial dilution plus buffer blank) containing 0.1 μg/ml LGR4-Fc or 0.015 μg/ml LGR5-Fc in assay buffer (0.5% BSA, 0.05% polysorbate 20, 15 parts per million Proclin 300 in PBS) were added to the plates at 25 ul/well. After a 2-hour incubation, LGR4-Fc and LGR5-Fc bound to the plates were detected using peroxidase labeled goat F(ab′)2 anti-human Fc (Jackson ImmunoResearch, West Grove, Pa.). After a 1 hour incubation, the substrate 3,3′,5,5′-tetramethyl benzidine (Moss Inc., Pasadena, Md.) was added to the plates and the reaction was stopped by adding 1 M phosphoric acid. Plates were washed with PBS, pH 7.4, containing 0.05% tween 20, between steps and all the incubation steps following the coating step were performed at room temperature on an orbital shaker. Absorbance was read at 450 nm on a multiskan Ascent reader (Thermo Scientific, Hudson, N.H.).

For assay [9], the target named is T8, human RSPO4 with C-terminal HA tag, stably expressed in 293 cells (human, UniProt Q2I0M5 20-234).
T8 construct: also called hRSPO4; RSPO4 Hi
Put plainly: IHC, FFPE 293 cell pellet, RSPO4 Hi; - = not significant staining.

Assay [10] deals with T5, human RSPO3 with C-terminal HA tag, …. Put plainly: IHC, FFPE 293 cell pellet, RSPO3 Med.
Assay [11] addresses T1, recombinant human RSPO3. Put plainly: SPR, BIAcore T200, huRSPO3 immobilized, antibody injected. The procedure: The binding affinity of the antibodies in this section was determined by BIAcore™ T200 Format. Briefly, BIAcore™ research grade CMS chips were activated with 1-ethyl-3-(3-dimethylaminopropyl) carbodiimide (EDC) and N-hydroxysuccinimide (NETS) reagents according to the supplier's instructions. huRSPO3 was immobilized to achieve approximately 50 response units (RU) in each flow cell. Unreacted coupling groups were blocked with 1M ethanolamine. For kinetics measurements, Four-fold serial dilutions of variant antibody was injected in HBS-P buffer (0.01M HEPES pH7.4, 0.15M NaCl, 0.005% surfactant P20) at 25° C. with a flow rate of 30 μl/min. Association rates (kon) and dissociation rates (koff) were calculated using a 1:1 Langmuir binding model (BIAcore™ T200 Evaluation Software version 2.0). The equilibrium dissociation constant (Kd) was calculated as the ratio koff/kon.

Assay [12] deals with T1, recombinant human RSPO3. Put plainly: cell-based or functional assay.
A further assay deals with recombinant human RSPO2 (human, UniProt Q6UXX9 22-243). Put plainly: cell-based or functional assay.
The target of assay [13] is T2, cynomolgus RSPO3. Put plainly: cell-based or functional assay.
Assay [14] concerns the target T4, mouse RSPO2. Put plainly: cell-based or functional assay.
Assay [15] has as its target T3, mouse RSPO3. Put plainly: cell-based or functional assay.
Another assay concerns the target cynomolgus RSPO2 (cynomolgus, UniProt G7PCH9 22-243). Put plainly: cell-based or functional assay.

T4 sequence (Q8BFU0 22-205 limits assumed): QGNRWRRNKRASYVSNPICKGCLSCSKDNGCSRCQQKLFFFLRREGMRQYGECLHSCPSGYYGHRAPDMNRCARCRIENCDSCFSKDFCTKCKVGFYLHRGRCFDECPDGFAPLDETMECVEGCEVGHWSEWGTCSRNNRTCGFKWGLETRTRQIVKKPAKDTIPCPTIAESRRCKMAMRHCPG
T6 sequence (Q2MKA7 other isoform, or with tags, fused parts or gaps limits assumed): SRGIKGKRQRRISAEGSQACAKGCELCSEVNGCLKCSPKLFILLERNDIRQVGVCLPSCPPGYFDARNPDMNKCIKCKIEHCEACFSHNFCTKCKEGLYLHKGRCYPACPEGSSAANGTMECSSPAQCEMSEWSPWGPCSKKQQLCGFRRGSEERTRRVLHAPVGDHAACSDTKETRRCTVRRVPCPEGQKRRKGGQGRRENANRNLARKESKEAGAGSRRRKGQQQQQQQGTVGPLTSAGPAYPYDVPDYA
T8 sequence (Q2I0M5 other isoform, or with tags, fused parts or gaps limits assumed): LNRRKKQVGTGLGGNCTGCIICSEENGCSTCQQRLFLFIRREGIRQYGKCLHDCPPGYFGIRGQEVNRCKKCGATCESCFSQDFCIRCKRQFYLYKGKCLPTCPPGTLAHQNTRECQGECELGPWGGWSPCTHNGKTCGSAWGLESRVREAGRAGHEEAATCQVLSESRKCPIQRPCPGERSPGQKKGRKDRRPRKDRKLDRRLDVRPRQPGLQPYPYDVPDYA
Sequence of recombinant human RSPO2 (Q6UXX9 22-243): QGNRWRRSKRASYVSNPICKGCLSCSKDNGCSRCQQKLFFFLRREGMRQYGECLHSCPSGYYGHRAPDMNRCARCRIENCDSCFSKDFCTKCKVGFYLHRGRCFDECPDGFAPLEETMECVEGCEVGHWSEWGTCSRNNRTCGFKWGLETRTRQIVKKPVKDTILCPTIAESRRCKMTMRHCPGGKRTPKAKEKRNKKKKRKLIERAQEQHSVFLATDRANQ
Sequence of cynomolgus RSPO2 (G7PCH9 entry or part of it): as the sequence (Q6UXX9 22-243) above, with V160A, L165P, T178A counted along it

B1: Fab 5D6 (Fab, V domains shown)
VH: EVQLQESGPSLVKPSQTLSLTCSVTGDSITSGYWNWIRKFPGNKFEYMGYISYSGKTYQNPSLKSRISITRDTSKNQYHLQLNSVTTEDTATYYCATYYGYGGPWFAYWGQGTLVTVSA
VL: DIVLTQSPSSMYASLGERVTITCKASQDIDSYLSWFQQKPGKSPKTLIYLTNRLVDGVPSRFSGSGSGQDYSLTISSLEYEDMGIYYCLHYDEFPLTFGAGTKLEIK
notes: Fab expressed in E. coli for crystallography; also called 5D6 Fab
As for B1, the figures for the Kd in the assay with recombinant human RSPO3 [1], with cynomolgus RSPO3 [2] and with mouse RSPO3 [3] were 0.073 nM, 1.9 nM and 3.36 nM, respectively. For the same molecule, the binding result with mouse RSPO2 [4] was “no binding”.

B2: 21C2 (antibody, V domains shown)
VH: QVQLQQSGAELVRPGVSVKISCKGSGYTFTDYVIHWVKQSHAKSLEWIGVITTYYGDASYNQKFKGKATMTVDKSSSTAYMELARLTSEDSAIYYCARGAYGNSPSYWYFDVWGAGTSVTVSS
VL: DIVLTQSPASLTVSLGQRATISCRASESVDSYGNTFMHWYQQKPGQPPKLLIYLASNLESGVPARFSGSGSRTDFTLTIDPVEADDAATYYCQQNNEDPYTFGGGTKLEIK
notes: also called monoclonal antibody 21C2
B2: the “percentage of cells staining” value in assay [5] was determined as 95%; in [6], 10%; in assay [10], 60%. Besides, the binding result in assay [7] and in assay [9] was “no binding” each time. For the same molecule, the “IC50 (read off the curve)” value in assay [8] is around 0.1 µg/mL.

B3: 4H1 (Fab, V domains shown)
VH: EVKLVESGGGFVKPGGSLKLSCAASGFTFSNFAMSWVRQSPEKRLEWVAEINNGGNYAYYQDTVTGRFTISRDNAKNTLYLEMSSLRSEDTAMYFCAREDYVNYEAYFAYWGQGTTLTVSS
VL: SIVMTQTPLSLPVSLGDQASISCRSSQSIVHSNGNTYLEWYLQKPGQSPKLLIYRISNRFSGVPDRFSGSGSGTDFTLKISRVEAEDLGVYYCFQGSHVPYTFGGGTKLEIK
notes: also called Fab of 4H1; 4H1 Fab
For B3, the results for the Kd with recombinant human RSPO3 [1], with cynomolgus RSPO3 [2] and in the assay with mouse RSPO3 [3] were 9.5 nM, 6.4 nM and 6.8 nM, respectively. Also, the binding result with mouse RSPO2 [4] is listed as “no binding”.

B4: hu5D6v4.3 (Fab, V domains shown)
VH: EVQLVESGPGLVKPSETLSLTCTVSGDSITSGYWNWIRQPPGKGLEWIGYISYSGKTYQNPSLKSRITISRDTSKNQFSLKLSSVTAADTAVYYCATYYGYGGPWFAYWGQGTLVTVSS
VL: DIQMTQSPSSLSASVGDRVTITCKASQDIDSYLSWFQQKPGKAPKTLIYLTNRLVDGVPSRFSGSGSGTDYTLTISSLQPEDFATYYCLHYDEFPLTFGQGTKVEIK
notes: Humanized 5D6 variant; also called v1+T69 (LC)+(W47+I48+F78 (HC))
As for B4, the Kd in the assay with recombinant human RSPO3 [11] came out at 0.07 nM.

B5: 5C2 (antibody, V domains shown)
VH: EVQLQESGPGLVAPSQSLSITCTVSGFSLTSYGVHWVRQPPGKGLEWLGVIWTGGSTNYNSALMSRLSISKDNSKSQVFLKMNSLQTDDTAMYYCARVDGYYYFDYWGQGTTLTVSS
VL: DIVMTQSTSSLSASLGDRVTISCRASQDISNYLNWYQQKPDGTVKLLIYYTSRLHSGVPSRFSGSGSGTDYSLTISNLEPEDIATYFCQQGDTLPPTFGGGTKLEIK
notes: also called monoclonal antibody 5C2
As for B5, the “percentage of cells staining” value in [5] was above 95%; in [6], 40%; in assay [10], 60%. Further, the binding result in assay [7] and in assay [9] was “no binding” throughout. In addition, in assay [8], the “IC50 (read off the curve)” value was around 0.1 µg/mL. Besides, the “IC50, WNT luciferase reporter, bivalent antibody” value with recombinant human RSPO3 [12] was 0.65 nM; with recombinant human RSPO2, above 500 nM; in the assay with cynomolgus RSPO3 [13], 1.3 nM; with mouse RSPO2 [14], above 500 nM; with mouse RSPO3 [15], 0.47 nM; with cynomolgus RSPO2 it was above 500 nM.

B6: 6E9 (Fab, V domains shown)
VH: QVQLKESGPGLVQPSQSLSITCTVSGFSLTSYGVHWVRQSPGKGLEWLGVIWSGGSTDYNAAFISRLSISKDNSKSQVFFKMNSLQANDTAIYYCARNDGYYYFDYWGQGTTLTVSS
VL: B5 VL with V3K, P80Q, T97A
notes: also called Fab of 6E9; 6E9 Fab
With B6, in the assay with recombinant human RSPO3 [1], the Kd amounted to 67 nM. In the assay with mouse RSPO2 [4], the binding result is “no binding”.
